Values of other authors in PMC8476072.

Target: CheZ (Escherichia coli) (UniProt P0A9H9)
UniProt P0A9H9, sequence (P0A9H9 whole entry): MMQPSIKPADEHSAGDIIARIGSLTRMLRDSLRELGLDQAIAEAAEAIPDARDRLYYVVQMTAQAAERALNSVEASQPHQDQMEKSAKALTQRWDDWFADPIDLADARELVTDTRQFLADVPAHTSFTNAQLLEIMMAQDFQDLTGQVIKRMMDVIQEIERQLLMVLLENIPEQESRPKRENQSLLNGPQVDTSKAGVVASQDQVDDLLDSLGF

Kd: 8 µM
Substance: CheY (from UniProt P0AE67)
